Results published in the nanobody polyreactivity screen of Harvey et al. (2022).

Assay: yeast display, Sf9 membrane polyspecificity reagent, FACS + sequencing; frameworks hold sequencing errors
In short: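 Genes from sorted yeast were amplified by colony PCR, read by MiSeq 2 × 250 sequencing and filtered on CDR length. These cells carried a synthetic nanobody library in Saccharomyces cerevisiae BJ5465 and were sorted by FACS into low and high (top ~1%) gates on anti-HA and streptavidin fluorescence. Polyreactivity is labelled according to the gate of origin.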

| Sequence | polyreactivity (PSR sort gate) |
| --- | --- |
| QVQLVESGGGLVQAGGSLRLSCAASGFIFISNAMGWYRQAPGKERELVARISDTDRTHYADSVKGRFTISRDNAKNTVYLQMNSLKPEDTAVYYCATDQSLLDKVYYDVQYDYWGQGTQVTVSS | low polyreactivity |
| QVQLVESGGGLVQAGGSLRLSCAASGSTFYPYAMGWYRQAPGKERELVAAISSGGSTYYADSVKGRFTISRDNAKNTVYLQMNSLKPEDTAVYYCAADFYYAYYWGQGTEVTVSS | low polyreactivity |
| QVQLVESGGGLVQAGGSLRLSCAVSGGLFSFYAMGWYRQAPGKERELVAAISSGGTTYYADSVKGRFTISRDNAKNTVYLQMNSLKPEDTAVYYCALLVGHNYWGQGTQVTVSS | low polyreactivity |
| QVQLVESGGGLVQAGGSLRLICAASGFTFGYNDMGWYRQAPGKERELVATITRSAGRTYYADSVKGRFTISRDNAKNTVYLQMNSLKPEDTAVYYCASSYWDTEPGYREYDYWGQGTQVTVSS | low polyreactivity |
| QVQLVESGGGLVQAGGSLRLSCAASGFIFGINAMGWYRQEPGKERELFAAISKRTGSTYYADSVKGRFTISRDNAKNTVYLQMNSLKPEDTAFYYCNVVRYNGLDKYEYWGQGTQVTVSS | high polyreactivity |
| QDQLVESGGGLVQAGGSLRLSCAASGSIFTHNAMGWYRQAPGKERELVAAISSGGSTNYADSVKGRFTFSRDNAKNTVYLQMNSLKPEDTAVYYCAKSIDGWYWRRRRYDYWGQGTQVTVSS | low polyreactivity |
| QVQLVESGGGLVQAGGSLRLSCAASGSIFAYNAMGWYRQAPGKERELVAAITISGGRTYYADSVKGRFTISRDNAKNTVYLQMNSLKPEDTAVYYCAARYPSGTRKWYGYWGQGTQVTVSS | high polyreactivity |
| QVQLVESGGGLVQAGGSLRLSCAASGRIFYRYAMGWYRQAPGKERELVAAITIGGRTNYADSVKGRFTISRDNAKNTVYLQMNSLKPEDTAVYYCAVVLYTRYPPRVRYYYWGQGTQVTVSS | high polyreactivity |
| QVQLVESGGGLVQAGGSLRLSCAASGSTFAYYAMGWYRQAPGKERELVARIRSSGVSTYYADSVKGRFTISRDNAKNTVYLQMNSLKPEDTAVYYCNKAYSGVRYDSWGQGTQVTVSS | low polyreactivity |
| QDQLVESGGGLVQAGGSLRLSCAASGSIFVYNTMGWYRQAPGKERELVAAISSSGGSTYYADSVKGRFTISRDNAKNTVYLQMNSLKPEDTAVYYCAAVNGYQYAPYYYNGYDFWGQGTQVTVSS | low polyreactivity |
| QVQLVESGGGLVQAGGSLRISCADSGSIFTYNAMGWYRQAPGKERELVAAITSSSGSSTYADSVKGRFTISRDNAKYTVYLQMNSLKPEDTAVYYCAAPILSFPSPYVQYDYWGQGTQVTVSS | low polyreactivity |
| QVQLVESGGGLVQAGGSLRLSSAASGGSFKRYVMVWYRQAPGKERELVAAITWSGGSTYYADSVKGRFTISRDNAKNTVYLQMNSLKPEDTAVYYCNVVTRWVTAAGYDYWGQGTQVTVSS | high polyreactivity |
| QVQLVESGGGLVQAGGSLRISCAPSGIIFYQNTMGWYRQAPGKERELVATITKRGGSSYYADSVKGRFTISRDNAKNTVYLQMNSLKPEDTAVYYCNAAKYAASYIGYGYWGQGTQVTVSS | high polyreactivity |
| QVQLVESGGGLVQAGGSLRLSCAASGITLYEYAMGWYRQAPGKERELVAAISTSGGRTRYADSVKGRFTISRDNAKNTVYLQMNSLKPEDTAVYYCAASGFVQISNPRRDYWGQGTQVTVSS | high polyreactivity |
| QVQLVESGGGLVQAGGSLRLSCAASGSTFFRYAMGWNRQAPGKERELVATITGGGRTNYADSVKGRFTISRDNAKNTVYLQMNTLKPEDTAVYYCAAYGYVWALRLRYVTYYYWGQGTQVTVSS | high polyreactivity |
| QVQLVESGGGLVQAGGSLRLSCAASGSIFGFYAMGWYRQAPGKERELVASISSSGDSTYYADSVKGRFTISRDNAKNTVYLQMNSLKPEDTAVYYCAAVVYDIYGYEFDYWGQGTQVTVSS | low polyreactivity |

| Sequence | polyreactivity (PSR sort gate) |
| --- | --- |
| QVQLVESGGGLVQAGGSLRLSCAASGYTFDAYAMGWYRQAPGKERELVAAISGDSTNYADSVKGRFTISRDNAKNTVYLQMNSLKPEDTAVYYCAAAFWYDYWEKYDYWGQGTQVTVSS | low polyreactivity |
| QVQLVESGGGLVQAGGSLRLSCAASGFTFWYYAMGWYRQAPGKERELVARITSRGADTYADSVKGRFTISRDNAKNTVYLQKNSLKPEDTAVYYCNAEFGRARDDDYWGQGTQVTVSS | low polyreactivity |
| QVHLVESGGGLVQARGSLRLSCAASGITFRYYTMGLYRQAPVKERELVAVISWSGGSTYYADSVKGRFTISRDNAKNTVYFQMNSLKPEDTAVYYCAAVRRISRYDYWGQGTQVTVSS | high polyreactivity |
| QVQHEDSGGGLVQAGGSHRVSCAASGSTFAYNAMGGSRKAPGKERELVATISTDGSTYADSVKGRFTISRDNAQNTVYLQMNSLKPEDTAVYYCNADGHPSDPGYDYWGQGTQVTVSS | low polyreactivity |
| QVQLVESGGGLVQAGGSLRLSCAASGGIFYGYAMGWYRQAPGKERELVAAITTGGSTNYADSVKGRFTISRDNAKNTVYLQMNSLKPEDTAVYYCAAPVNRAQGPYARRVERYGYWGQGTQVTVSS | low polyreactivity |
| QVQLVESGGGLVQAGGSLRLTCAASGRILSHYAMVWYIQAPGKERELVATINSGGATYYADSVKGRFTISRDNAKYTVYFQMNSLKPEDTAVYYCAVDYAVSYAGWVLRYDYWGQGTQVTVSS | low polyreactivity |
| QVQLVESGGGLVQAGGSLRLSCAASGRTFYTYAMGWYRQAPGKDREFVAVISGRGARTYYADSVKGRFTISRDNAKNTVYLQMNSLKPEDTAVYYCAAVPPRKDYQHMDYWGQGTQVTVSS | low polyreactivity |
| QVQLVESGGGLVQAGGSLRLSCAASGFTFLINAMGWYRQAPGKERELVAAIRSGGSTNYADSVKGRFTISRDNAKNSVYFQMNSLKPEDTAVYYCAARRYYPYKYRYGYWGQGTQVTVSS | high polyreactivity |
| QVQLVESGGGLVQAGGSLRLSCAASGRIFRRYAMGWYRQAPGKEREFVAAITDGSTYYADSVKGRFTISRDNAKNTVYLQMNSLKPEDTAVYYCATQYGWSYSRRFYYWGQGTQVTVSS | high polyreactivity |
| QFQLVESGGGLVQAGGSLRLSCAASGIIFAQYTMGWYRQAPGKDRELGAAINRNGGSTYYADSVKGRFTISRDNAKNTVYLQMNSLKPEDTAVYYCIADALGFRYDYWGQGTQVTVSS | low polyreactivity |
| QVQLVESGGGLVQAGGRRRLSCAASGSTLRDYVMGWYRQAPGKERELVAAITGRVDDTYYADSVKGRFTISRDNAKNTVYLQMNSLKPEDTAGYYCAADYSVTLRIGGFYWFYAFDYWGQGSQVTVSS | low polyreactivity |
| QVQLVESGGGLVQAGGSLRLSCAASGSIFAFNAMGWYRQAPGKERELVAAMSGSGARTYYADSVKGRFTTSRDNAKNTVYLQLNSLKPEDTAVYYCARPYGYGYDYWGQGTQVTVSS | high polyreactivity |
| QVQLVESGGRLVQAGGSLRISCAASGNTFVRYAMGWYRQAPGKQSELVASISTSGGSTYYADSVKGRFTISRDNAKNTVYLQMNSLKPQDTAVYYCAARLPRTRYWEDFWGQGTQVSVSS | high polyreactivity |
| QVQLVESGGGLVQAGGSLRLSCAASGSIFTQYAMGWYRQAPGKEREFVARITGSGGRTYYADSVKGRFTISRDNAKNTVYLQMNSLKPEDTAVYYCAARDVRPYYVKPPVRYYYWGQGTQVTVSS | high polyreactivity |
| QVQLVDSGGGLVQAGGSLRLSCAASGSTFRLYAMGWYRQAPGKERELVAAISQRGGSTYYADSVKGRFTISRDNAKNTVYLQKNSLKPEDTAVYYCNTDWYRKWGKPYYYWGQGTQVTVSS | high polyreactivity |
| QVQLVESGGGLVQAGGSLRLSCAASGSIFGVNDMGWYRQAPGKERELVAGISSGGSTYYADSVKGRFTISRDNAKNTVYLQMNSLKPEDTAVYYCAKPYYDGRTHFDSWGQGTQVTVSS | low polyreactivity |
